Measured values: patent US20250361320A1

Target: human CEACAM5 on cells (MKN45, BxPC-3, Ls174T, HCT116-huCEACAM5) (human) (UniProt P06731)
Experiment: flow cytometry on BxPC-3 cells (medium, 60,000 receptors/cell)

Chain of human CEACAM5 on cells (MKN45, BxPC-3, Ls174T, HCT116-huCEACAM5) (human) (P06731 35-685 T210S limits assumed): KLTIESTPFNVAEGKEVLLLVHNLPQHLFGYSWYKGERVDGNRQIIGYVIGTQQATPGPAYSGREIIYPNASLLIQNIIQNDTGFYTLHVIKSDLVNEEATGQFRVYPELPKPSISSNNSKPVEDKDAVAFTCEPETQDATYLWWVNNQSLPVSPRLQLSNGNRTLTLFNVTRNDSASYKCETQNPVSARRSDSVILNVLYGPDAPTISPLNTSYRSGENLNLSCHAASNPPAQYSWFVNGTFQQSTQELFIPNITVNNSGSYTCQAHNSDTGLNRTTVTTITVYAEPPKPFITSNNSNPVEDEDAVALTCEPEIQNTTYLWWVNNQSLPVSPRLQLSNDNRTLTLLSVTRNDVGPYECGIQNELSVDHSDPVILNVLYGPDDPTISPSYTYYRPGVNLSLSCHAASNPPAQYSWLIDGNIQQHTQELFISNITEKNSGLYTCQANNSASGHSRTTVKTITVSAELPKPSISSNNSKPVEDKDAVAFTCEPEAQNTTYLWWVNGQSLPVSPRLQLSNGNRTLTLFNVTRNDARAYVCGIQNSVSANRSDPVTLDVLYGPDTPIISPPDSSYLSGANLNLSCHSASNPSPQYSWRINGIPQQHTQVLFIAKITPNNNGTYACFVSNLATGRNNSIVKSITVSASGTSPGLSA

EC50 (read off the curve): 8 nM
Substance: mAb Control 3 (antibody)
